This passage reports Kd results from paper PMC2949298.

The target of the assay is 21c Fab (human). Put plainly: SPR. Background: SPR reads the build-up and loss of mass on a sensor chip optically.

For “CAP210_(V1V2) (core CAP210 gp120 containing the V1V2 loop) with sCD4 (complex)”, the Kd worked out at 92 nM.

What is called Kd is the concentration at which binding is half-saturated. A low value points to tighter binding.
